Reference: patent US20220025045A1 (INNATE PHARMA, published 2022)

B1: 3H5 (antibody, human IgG1, V domains shown)
VH: QVQLKESGPGLVAPSQSLSITCTVSGFSLTSYGVSWVRQPPGKGLEWLGVIWGDGSTNYHSALISRLSISKDNSKSQVFLKLNSLQTDDTATYYCAKPRWDDYAMDYWGQGTSVTVSS
VL: DIQMTQTTSSLSASLGDRVTISCRASQDISNYLNWYQQKPDGTVKLLIYYTSRLHSGVPSRFSGSGSGTDYSLTISNLEQEDIATYFCQQGNTLWTFGGGTKLEIK
B2: 26D8 (antibody, human IgG1, V domains shown)
VH: QVQLQQSGAELVKPGASVKLSCKASGYTFTEHTIHWIKQRSGQGLEWIGWFYPGSGSMKYNEKFKDKATLTADKSSSTVYMELTRLTSEDSAVYFCARHTNWDFDYWGQGTTLTVSS
VL: DIVLTQSPASLAVSLGQRATISCKASQSVDYGGDSYMNWYQQKPGQPPKLLIYAASNLESGIPARFSGSGSGTDLTLNIHPVEEDDAAMYYCQQSNEEPWTFGGGTKLEIK
B3: 18E1 (antibody, human IgG1, V domains shown)
VH: QVQLQQSGAELVKPGASVRLSCKASGYTFTAHTIHWVKQRSGQGLEWIGWLYPGSGSIKYNEKFKDKATLTADKSSSTVYMELSRLTSEDSAVYFCARHTNWDFDYWGQGTTLTVSS
VL: NIVLTQSPASLAVSLGQRATISCKASQSVDYGGASYMNWYQQKPGQPPKLLIYAASNLESGIPARFSGSGSGTDLTLNIHPVEEEDAAMYYCQQSNEEPWTFGGGTKLEIK
B4: 27H5 (antibody, human IgG1, V domains shown)
VH: QVQLKESGPGLVAPSQSLSITCTVSGFSLTSYGVSWVRQPPGKGLEWLGVIWGDGNTNYHSALISRLSISKDNSKSQVFLKLNSLQTDDTATYYCARTNWDGWFAYWGQGTLVTVSA
VL: DIVMTQSHKFMSTSVGDRVSITCKASQDVGTAVAWYQQKPGQSPKLLIYWASTRHTGVPDRFTGSGSGTDFTLTISNVQSEDLADYFCQQYRSYPLGTFGGGTKLEIK
B5: GHI/75 (antibody, V domains shown)
VH: EVILVESGGALVRPGGSLKLSCAASGFTFSSNAMSWVRQTPEKRLEWVATISNGGTFTYYPDSVKGRFTISRDNAKNTLYLQMNSLRSEDTAMYYCARHGDGNYGDPLDYWGQGTTLTVSS
VL: DIQMTQSPASQSASLGESVTITCLASQTIGTWLAWYQQKPGKSPQLLIYAATNLADGVPSRFSGSGSGTKFSFKISSLQAEDFVSYYCQQLYSTPFTFGSGTKLEIK
B6: 27C10 (antibody, human IgG1, V domains shown)
VH: EVQLQESGPGLVKPSQSLSLTCSVTGYSITSGYYWNWIRQFPENKLEWMGYIRYDGSNNYNPSLNNRISITRDASKNQFFLKLNSVTTEDTATYYCARGWLLWFYAVDYWGQGTSVTVSS
VL: DVVMTQTPLSLPVSLGDQASISCRSSQSIVHTNGNTYLEWYLQKSGQSPKLLIYKVSNRLSGVPDRFSGSGSGTDFTLKISRVEAEDLGIYYCFQGSHVPWTFGGGTKLEIK

Tests used:
[1] = molecular target: T1, recombinant human ILT2 protein (analyte in SPR and Octet) (human, UniProt Q8NHL6 24-458, limits assumed); assay: SPR, mAb captured on Protein-A, monovalent, two state reaction
T1 construct: also called Human ILT2 recombinant proteins
Method: Measurements were performed on a Biacore T200 apparatus (Biacore GE Healthcare) at 25° C. In all Biacore experiments HBS-EP+ (Biacore GE Healthcare) and NaOH 10 mM served as running buffer and regeneration buffer respectively. Sensorgrams were analyzed with Biacore T100 Evaluation software. Protein-A was purchased from (GE Healthcare). Human ILT2 recombinant proteins were cloned, produced and purified at Innate Pharma. Protein-A proteins were immobilized covalently to carboxyl groups in the dextran layer on a Sensor Chip CMS. The chip surface was activated with EDC/NHS (N-ethyl-N′-(3-dimethylaminopropyl) carbodiimidehydrochloride and N-hydroxysuccinimide (Biacore GE Healthcare)). Protein-A was diluted to 10 μg/ml in coupling buffer (10 mM acetate, pH 5.6) and injected until the appropriate immobilization level was reached (i.e. 600 RU). Deactivation of the remaining activated groups was performed using 100 mM ethanolamine pH 8 (Biacore GE Healthcare). […] For blank subtraction, cycles were performed again replacing ILT2 proteins with running buffer. The monovalent affinity analysis was conducted following a regular Capture-Kinetic protocol as recommended by the manufacturer (Biacore GE Healthcare kinetic wizard). […]

[2] = molecular target: T2, Mutant D4-1B; assay: flow cytometry titration on cells transfected with ILT2 mutant 4-1b
T2 construct: D4 domain point mutant; also called ILT2 mutant 4-1b

[3] = molecular target: T3, Mutant D4-4; assay: flow cytometry titration on cells transfected with ILT2 mutant 4-4
T3 construct: D4 domain point mutant; also called ILT2 mutant 4-4

[4] = molecular target: T4, human ILT-2 (LILRB1), complete form expressed at the cell surface (human, UniProt Q8NHL6 24-650); assay: flow cytometry, CHO-ILT2 cells
T4 construct: also called CHO-ILT2; CHO ILT2 cell line

[5] = molecular target: T1, recombinant human ILT2 protein (analyte …); assay: BLI (Octet RED96), mAb captured on AMC biosensor, 1:1 model
[6] = molecular target: T5, ILT2 mutant 4-2 (human, UniProt Q8NHL6 24-650); assay: flow cytometry titration on cells transfected with ILT2 mutant 4-2
T5 construct: Transfected in HEK293T cells
T5 sequence (Q8NHL6 other isoform, or with tags, fused parts or gaps mutant): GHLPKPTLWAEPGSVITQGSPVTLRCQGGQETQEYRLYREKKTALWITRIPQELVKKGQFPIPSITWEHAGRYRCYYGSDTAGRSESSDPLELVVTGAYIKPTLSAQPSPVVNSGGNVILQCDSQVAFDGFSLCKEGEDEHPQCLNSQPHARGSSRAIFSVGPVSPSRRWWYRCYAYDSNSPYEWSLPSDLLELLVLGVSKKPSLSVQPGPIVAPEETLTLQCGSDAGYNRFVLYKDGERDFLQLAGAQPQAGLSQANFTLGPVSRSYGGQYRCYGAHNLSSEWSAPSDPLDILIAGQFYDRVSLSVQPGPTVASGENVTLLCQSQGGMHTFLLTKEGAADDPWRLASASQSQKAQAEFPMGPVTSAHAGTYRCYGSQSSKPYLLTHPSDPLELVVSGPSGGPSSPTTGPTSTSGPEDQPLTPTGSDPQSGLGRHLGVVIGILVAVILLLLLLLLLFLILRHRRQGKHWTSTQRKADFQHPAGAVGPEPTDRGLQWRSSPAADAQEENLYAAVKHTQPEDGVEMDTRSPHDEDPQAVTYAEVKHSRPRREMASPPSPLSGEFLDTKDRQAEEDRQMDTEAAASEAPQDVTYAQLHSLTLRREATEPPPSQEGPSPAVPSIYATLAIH

T1 sequence (Q8NHL6 24-458 limits assumed): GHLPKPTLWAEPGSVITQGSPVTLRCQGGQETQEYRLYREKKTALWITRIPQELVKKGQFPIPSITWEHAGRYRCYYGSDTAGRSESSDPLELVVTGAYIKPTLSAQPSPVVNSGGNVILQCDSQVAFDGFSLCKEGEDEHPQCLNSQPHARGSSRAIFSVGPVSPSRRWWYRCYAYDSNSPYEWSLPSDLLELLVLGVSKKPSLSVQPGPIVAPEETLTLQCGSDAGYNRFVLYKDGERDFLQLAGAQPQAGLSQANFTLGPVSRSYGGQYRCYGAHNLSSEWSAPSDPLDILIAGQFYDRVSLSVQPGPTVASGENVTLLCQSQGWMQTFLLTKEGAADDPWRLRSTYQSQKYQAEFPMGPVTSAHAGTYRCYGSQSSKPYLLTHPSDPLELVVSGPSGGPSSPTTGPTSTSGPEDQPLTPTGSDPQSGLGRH
T4 sequence (Q8NHL6 24-650): as the sequence (Q8NHL6 other isoform, or with tags, fused parts or gaps mutant) above, with G328W, H330Q, A347R, A349T, S350Y, A355Y counted along it

Row | Binder | koff [1] [s⁻¹] | EC50 (read off the curve) [2] [µg/mL] | EC50 (read off the curve) [3] [µg/mL] | also measured
1 | B1 | 0.008 | – | – | –
2 | B2 | – | ~0.2 | – | –
3 | B3 | – | ~0.3 | ~0.3 | –
4 | B4 | 0.1 | – | – | –
5 | B5 | – | – | – | EC50 [4]: 5.39 µg/mL; Kd [5]: 28.1 nM; koff [5]: 0.00038 s⁻¹; kon [5]: 13000 M⁻¹ s⁻¹
6 | B6 | – | ~0.5 | ~0.5 | EC50 (read off the curve) [6]: ~0.6 µg/mL
